Assay results published in US20210292393A1 (published 2021).

Biological target: SARS-CoV-2 full length spike protein (wild type) (SARS-CoV-2, UniProt P0DTC2 14-1208)

| Binder | binding signal, bead assay (fold over isotype) |
| --- | --- |
| antibody 273 (antibody, V domains shown) VH: QVQLVQSGAEVKKPGASVKVSCKVSGYTLTELSMHWVRQAPGKGLEWMGGFDPEDGETIYAQKFQGRVTMTEDTSTDTAYMELSSLRSEDTAVYYCATAPGYYDSSAPQPINWFDPWGQGTLVTVSS VL: QSALTQPASVSGSPGQSITISCTGTSSDVGSYNLVSWYQQHPGKAPKLMIYEVSKRPSGVSNRFSGSKSGNTASLTISGLQAEDEADYYCCSYAGSSTLVFGGGTKLTVL [antibody 273, listing 1 of 2 here] | 924 |
| antibody 264 (antibody, V domains shown) VH: QVHLVESGGGVVQPGRSLRLSCAASGFTLTSYAMHWVRQAPGKGLEWVALISYDGSVKKYAESVKGRITVSGDNSRNTLHLQINTLRADDTAVYYCVRGGVSGPNSFDLWGQGTMVTVSS VL: DVVMTQSPLSLPVTLGQPASISCRSSQSLEYSDGNTYVNWFQQRPGQSPRRLIYQVSNRASGVPDRFSGSGSGTDFTLQISRVEAEDVGIYYCMQGTHWPVTFGQGTKVEIK | 598 |
| antibody 263 (antibody, V domains shown) VH: EVQLVQSGAEVKKPGATVKISCKVSGYTFTDYYMHWVQQAPGKGLEWMGLVDPEDGETIYAEKFQGRVTITADTSTDTAYMELSSLRSDDTAVYYCTTDLAFTIFGGRRGFDPWGQGTLVTVSS VL: DIQLTQSPSFLSASVGDRVTITCRASQGISSYLAWYQQKPGKAPKLLIYAASTLQSGVPSRFSGSGSGTEFTLTISSLQPEDFATYYCQQLNSYDFGQGTRLEIK [antibody 263, listing 1 of 2 here] | 722 |
| antibody 276 (antibody, V domains shown) VH: QVQLQESGPGLVKPSQTLSLTCTVSGDSISSGGYYWSWIRQHPGKGLEWIGYIYYSGSAYYNPSLKSRVTISLDTSKNQFSLKLSSVTAADTAVYYCARDSVAGFSIFDYWGQGTLVTVSS VL: SSELTQDPAVSVALGQTVRITCQGDSLRSYYASWYQQKPGQAPVRVIYGKNNRPSGIPDRFSGSSSGNTASLTITGAQAEDEADYYCNSWDSSGNHVVFGGGTKLTVL | 748 |
| antibody 265 (antibody, V domains shown) VH: EVQLVQSGAEVKKPGATVKVSCKFSGDTFSHYYIHWVQQAPGKGLEWMGLVDPQDGESEYAQKFQGKVTITADTSIDTSYLEVTSLRFDDTAFYFCATRGMSGAFDRWGQGTLVTVSS VL: DIVMTQSPDSLAVSLGERATINCKSSQSILSTSNNKNYLAWYQQKPGQPPKLLIYWASTRESGVPDRFSGGGSGTDFTLTISSLQAEDVAVYYCQQYYRTAYTTPIYTFGQGTKLEIK [antibody 265, listing 1 of 2 here] | 1280 |
| antibody 281 (antibody, V domains shown) VH: not shown VL: QSALTQPASVSGSPGQSITISCTGTSSDVGSYNLVSWYQQHPGKAPKLMIYEVSKRPSGVSNRFSGSKSGNTASLTISGLQAEDEADYYCCSYAGSSTHVVFGGGTKLTVL | 570 |

Biological target: full-length trimeric SARS-CoV spike protein (SARS-CoV, UniProt P59594 14-1190)

| Binder | median fluorescence intensity, fold over isotype control |
| --- | --- |
| antibody 260 (antibody, V domains shown) VH: EVQLVESGGGLVQPGRSLRLSCAASGFTFDYYAMHWVRQAPGKGLEWVSGISWNSGTIGYADSVKGRFTISRDNAKNSLYLQMNSLRAEDTALYYCAKDSRPSGRYYYGMDVWGQGTTVTVSS VL: not shown | 108 fold over isotype |
| antibody 273 (antibody, V domains shown) VH: QVQLVQSGAEVKKPGASVKVSCKVSGYTLTELSMHWVRQAPGKGLEWMGGFDPEDGETIYAQKFQGRVTMTEDTSTDTAYMELSSLRSEDTAVYYCATAPGYYDSSAPQPINWFDPWGQGTLVTVSS VL: QSALTQPASVSGSPGQSITISCTGTSSDVGSYNLVSWYQQHPGKAPKLMIYEVSKRPSGVSNRFSGSKSGNTASLTISGLQAEDEADYYCCSYAGSSTLVFGGGTKLTVL [antibody 273, listing 2 of 2 here] | 1.23 fold over isotype |
| antibody 259 (antibody, V domains shown) VH: EVQLVQSGAEVKKPGATVKISCKVSGYTFTDYYMHWVQQAPGKGLEWMGLVDPEDGETIYAEKFQGRVTITADTSTDTAYMELSSLRSEDTAVYYCATDLLSWKLYCSGGSCPQMDVWGQGTTVTVSS VL: DIQMTQSPSSLSASVGDRVTITCRASQGIRNDLGWYQQKPGKAPKRLIYAASSLQSGVPSRFSGSGSGTEFTLTISSLQPEDFATYYCLQHNSYPQTFGQGTKLEIK | 1.03 fold over isotype |
| antibody 315 (antibody, V domains shown) VH: QVQLVQSGSELKKPGASVKLSCQASGYSFTNHAMNWVRQAPGQGLEWMGWINTNTGNPTYAQGFTGRFVFSLDTSVSTTYLHISSLKAEDTAVYYCARASARPGVATNLDFWGQGTLVVVSS VL: DIQMTQSPSSLSASVGDRVTITCRASQNIDNYLNWYQQKPGKAPKLLIYAASRLHSGVPSRFSGSGSGTDFTLIISSLQPEDLATYYCQQSYSNPLTFGPGTKVDIR | 1.07 fold over isotype |
| antibody 299 (antibody, V domains shown) VH: not shown VL: EIVLTQSPATLSLSPGERATLSCRASQSVSSYLAWYQQKPGQAPRLLIYDASNRATGIPARFSGSGSGTDFTLTISSLEPEDFAVYYCQQRSNWPWTFGQGTKVEIK | 1.13 fold over isotype |
| antibody 317 (antibody, V domains shown) VH: QVQLVQSGAEVKKPGASVKVSCKVSGYTLTELSMHWVRQAPGKGLEWMGGFDPEDGETIYAQKFQGRVTMTEDTSTDTAYMELSSLRSEDTAVYYCASSPAAAGTSQYYYYYGMDVWGQGTTVTVSS VL: not shown | 1.14 fold over isotype |
| antibody 270 (antibody, V domains shown) VH: QVQLVQSGAEVKRPGTSVKVSCKTSGYTFTDHFIHWVRQAPGRRLEWMGWINPNSGGTNYAQNFQGRVTMTRDTSITTAYMDLTRLTSDDTAIYYCAREAAYGSGNLNWFDPWGQGTRVTVSS VL: NFMLTQPHSVSESPGKTVTISCTGSSGSIAANYVHWYQQRPGSAPRTVIYEDNQRPSGVPDRFSGSIDSSSNSASLTISGLKTEDEADYYCQSYDGDSWVFGGGTKLTVL | 1.34 fold over isotype |
| antibody 294 (antibody, V domains shown) VH: EVQLVESGGGLVQPGGSLRLSCAASGFTVSSNYMNWVRQAPGKGLEWVSVIYSGGSTYYADSVKGRFTISRDNSKNTLYLQMNSLRAEDTAVYYCARDLGPSGMDVWGQGTTVTVSS VL: DIQMTQSPSSVSASVGDRVTITCRASQGISSWLAWYQQKPGKAPKLLIYAASSLQSGVPSRFSGSGSGTDFTLTISSLQPEDFATYYCQQANSFPLFGGGTKVEIK | 1.07 fold over isotype |
| antibody 301 (antibody, V domains shown) VH: QVQLVQSGAEVKKPGASVKVSCKVSGYTLTELSMHWVRQAPGKGLEWMGGFDPEDGETIYAQKFQGRVTMTEDTSTDTAYMELSSLRSEDTAVYYCATAFCGGDCYPPDALDIWGQGTMVTVSS VL: DIQMTQSPSSVSASVGDRVTITCRASQGISSWLAWYQQKPGKAPKLLIYAASSLQSGVPSRFSGSGSGTDFTLTISSLQPEDFATYYCQQANSFPLTFGGGTKVEIK | 1.45 fold over isotype |
| antibody 267 (antibody, V domains shown) VH: EVHLVQSGAEMKKPGATVKISCKVSGNTFIDHYIQWVQQAPGKGFEWMGLVDPEDGETIYAEKFQGRVTITADTSRDTAYMELSSLKSEDTAVYYCGTHGDYLDYWGQGTLVTVSS VL: FYELTQPSSVSVSPGQTALITCSGDVVAKKYARWFQQKAGQAPVLVIYKDTERPSGIPERISGSSSGTTVTLTISGAQVEDEADYYCYSATDNNLVFGGGTKVTVL | 16.9 fold over isotype |
| antibody 290 (antibody, V domains shown) VH: QVHLVQSGAEVKKPGASVKVSCAASGYTFNNYGVSWVRQAPGQGLEWMGWISASNGNTKYAQNLQGRVTMTTDTSTSTAYMELRSLRSDDTAVYYCARDLVGPTAPNYYYGMDVWGQGTAVTVSS VL: QSVLTQPPSVSGAPGQRVTISCTGSSSSIGAGYDVHWYQQLPGTAPKLLIYANSNRPSGVPDRLSGSKSGTSASLAITGLQAEDEADYYCQSYDSSLSGYVFGTGTKVTVL | 1.25 fold over isotype |
| antibody 263 (antibody, V domains shown) VH: EVQLVQSGAEVKKPGATVKISCKVSGYTFTDYYMHWVQQAPGKGLEWMGLVDPEDGETIYAEKFQGRVTITADTSTDTAYMELSSLRSDDTAVYYCTTDLAFTIFGGRRGFDPWGQGTLVTVSS VL: DIQLTQSPSFLSASVGDRVTITCRASQGISSYLAWYQQKPGKAPKLLIYAASTLQSGVPSRFSGSGSGTEFTLTISSLQPEDFATYYCQQLNSYDFGQGTRLEIK [antibody 263, listing 2 of 2 here] | 1.13 fold over isotype |
| antibody 295 (antibody, V domains shown) VH: QVQLQESGPGLVKPSQTLSLTCTVSGGSISSSDYYWSWIRQPPGKGLEWIGYIYYSGSTYYNPSLKSRVTISVDTSKNQFSLKLSSVTAADTAVYYCARVVGYCSSTSCYVDYWGQGTLVTVSS VL: EIVLTQSPATLSLSPGERVTLSCRASQSVSSYLAWYQQKPGQAPRLLIYDASNRATGIPARFSGSGSGTDFTLTISSLEPEDFAVYYCQQRSNWPPGLTFGGGTKVEIK | 1.24 fold over isotype |
| antibody 306 (antibody, V domains shown) VH: QVQLVESGGGVVQPGRSLRLSCAASGFTFSSYGMHWVRQAPGKGLEWVAVIWYDGSNKYYADSVKGRFTISRDNSKNTLYLQMNSLRAEDTAVYYCAKDGGYCGGDCYSDGVDYWGQGTLVTVSS VL: not shown | 1.39 fold over isotype |
| antibody 288 (antibody, V domains shown) VH: EVQLVESGGGLVQPGGSLRLSCAASGFTFSSYDMHWVRQATGKGLEWVSAIGTAGDTYYPGSVKGRFTISRENAKNSLYLQMNSLRAGDTAVYYCARGANRDYDILTGYYSYYYYGMDVWGQGTTVTVSS VL: not shown | 1 fold over isotype |
| antibody 265 (antibody, V domains shown) VH: EVQLVQSGAEVKKPGATVKVSCKFSGDTFSHYYIHWVQQAPGKGLEWMGLVDPQDGESEYAQKFQGKVTITADTSIDTSYLEVTSLRFDDTAFYFCATRGMSGAFDRWGQGTLVTVSS VL: DIVMTQSPDSLAVSLGERATINCKSSQSILSTSNNKNYLAWYQQKPGQPPKLLIYWASTRESGVPDRFSGGGSGTDFTLTISSLQAEDVAVYYCQQYYRTAYTTPIYTFGQGTKLEIK [antibody 265, listing 2 of 2 here] | 1.09 fold over isotype |
